According to paper PMC11706664, “Structure of WzxE the lipid III flippase for Enterobacterial Common Antigen polysaccharide” (Open Biology, 2025):

What was measured:
[1] = biological target: T1, WzxE, the lipid III flippase from Escherichia coli (E. coli K-12 MG1655, UniProt P0AAA7, V inserted between M1 and S2 (worked out from the letters of primer WzxE-F, …)); assay: SEC; WzxE incubated with nanobody at molar ratio 1:1.2 WzxE:Nb for 2 h at 4°C; co-elution on size exclusion chromatography in buffer B (25 mM Tris pH 7.5, 150 mM NaCl, 5% glycerol, OGNG, DDM); conditions: both partners purified
T1 construct: His10 removed with TEV protease; Residues of the XhoI site and of the TEV site probably stay at the C-terminus after cleavage (surmise); The same construct purified in DDM only was used in the ELISA; also called chain A; source: E. coli C43(DE3), purified from membranes (DM extraction with DDM/OGNG purification, or DDM only; nickel NTA, TEV cleavage, reverse IMAC, SEC); not shown: His10, …

[2] = biological target: T1, WzxE, the lipid III flippase from …; assay: crystal structure; WzxE-Nb10-Nb7 complex (Nb7 added to pre-formed WzxE-Nb10), with und-PP-GlcNAc or nerol-PP-GlcNAc added, lipidic cubic phase, 20°C; outward-facing conformation (PDB 9G9M, 9G9O); conditions: both partners purified
[3] = biological target: T2, WzxE-Nb10 complex (WzxE held on immobilised biotinylated Nb10-strep II) (Escherichia coli K-12 MG1655 (WzxE), V inserted between M1 and S2 (worked out from the letters of primer WzxE-F, …, biotin (EZ-link Sulfo-NHS-LC Biotin kit))); assay: ELISA; nanobodies screened on the WzxE-Nb10 complex held on Streptactin-coated plates by biotinylated Nb10-strep II; anti-His HRP antibody, read at 410 nm; room temperature; the step of adding the nanobodies is not described
T2 construct: WzxE, E. coli K-12 MG1655, as the chain of m1 (purified in DDM); as the chain of m4 (Nb10 with strep II tag); A complex of a natural membrane protein and a nanobody, so that no single origin fits; not shown: His10, C-terminal, cleaved; strep II, C-terminal, kept
T2 chain: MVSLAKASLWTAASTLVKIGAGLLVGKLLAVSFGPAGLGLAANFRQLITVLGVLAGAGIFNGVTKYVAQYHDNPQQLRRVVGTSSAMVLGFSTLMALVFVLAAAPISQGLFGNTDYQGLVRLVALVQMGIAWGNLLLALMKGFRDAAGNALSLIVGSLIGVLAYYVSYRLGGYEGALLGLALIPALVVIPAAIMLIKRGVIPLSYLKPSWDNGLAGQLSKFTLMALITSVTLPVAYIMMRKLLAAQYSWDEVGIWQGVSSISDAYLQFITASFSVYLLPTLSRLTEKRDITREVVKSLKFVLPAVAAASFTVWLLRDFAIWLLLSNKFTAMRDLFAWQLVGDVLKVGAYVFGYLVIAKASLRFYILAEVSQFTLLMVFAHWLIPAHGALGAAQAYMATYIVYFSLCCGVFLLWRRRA

[4] = biological target: T1, WzxE, the lipid III flippase from …; assay: ELISA; biotinylated Nb10-strep II (1.62 µM/well) bound on Streptactin-coated plates; WzxE purified in DDM added at 2.78 µM for 1 h; room temperature, 25 mM Tris pH 7.5, 150 mM NaCl, 0.02% DDM, 0.1% BSA, 0.05% Tween-20; conditions: both partners purified

B1: nanobody Nb10 (CA12485) (VHH)
VHH: QVQLVESGGGLVQAGGSLGLSCAASGRTFSNYVMAWFRQAPGKEREFVARISESRGTTDYADSVKGRFTISRDNAKNTIYLQMNSLNPGDTAVYSCAATLPAWTGIIGGRRPGNYPYWGQGTQVTVSS
notes: Raised by llama immunization with WzxE (Nanobody4Instruct), in plasmid pMESy4; also called chain B; source: E. coli WK6 (su-), purified (His-Trap, SEC)
[1]
  binding result: binds

B2: nanobody Nb7 (CA12482) (VHH)
VHH: QVQLVESGGGLVQAGDSLTLSCAASGRTAYRYGMGWFRQHPGKEREFVASIWWTGTTTYYADSVKGRFTISRDDVKNMVYLQMNSLKPEDTAVYYCAAKFYGGNSKRPGDYAYWGQGTQVTVSS
notes: Raised by llama immunization with WzxE (Nanobody4Instruct), in plasmid pMESy4; In the ELISA it was probably detected by the anti-His HRP antibody (surmise; the methods leave out the step); also called chain C; source: E. coli WK6 (su-), purified (His-Trap, SEC)
[2]
  binding result: binds
[3]
  binding result: binds

B3: biotinylated Nb10-Strep II tagged protein (VHH)
VHH: B1 VHH
notes: as the chain of m2 (Nb10), with the C-terminal hexa-histidine tag exchanged for a strep II tag; source: E. coli WK6 (su-), purified (Strep-tactin beads, SEC), biotinylated; not shown: strep II, C-terminal, kept
[4]
  binding result: binds
